Changes are numbered by the printed parent chain.
B1: hu1D7v63 VHH-hIgG1 Fc-NNT (monomeric) (VHH)
VHH: EVQLLESGGGEVQPGGSLRLSCAASRGKISQYRMGWYRQAPGKERELVAHISNTGDAAEYVAPVKDRFTISRDNAKNALYLQMSSLRAEDTAVYKCNTVEDILAWGQGTLVTVRP
B2: hu1D7v158-9 VHH-hIgG1 Fc-NNT (monomeric) (VHH)
VHH: B1 VHH with A23V, L47F, D66G, S84N, R114E
B3: hu1D7v158-6 VHH-hIgG1 Fc-NNT (monomeric) (VHH)
VHH: B1 VHH with A23V, E44Q, P63S, D66G, S84N, R114E
B4: hu1D7v158-5 VHH-hIgG1 Fc-NNT (monomeric) (VHH)
VHH: B1 VHH with A23V, E44Q, A62E, D66G, S84N, R114E
B5: hu1D7v158-3 VHH-hIgG1 Fc-NNT (monomeric) (VHH)
VHH: B1 VHH with A23V, E44Q, H50A, D66G, S84N, R114E
B6: hu1D7v158-1 VHH-hIgG1 Fc-NNT (monomeric) (VHH)
VHH: B1 VHH with A23V, Y37V, E44Q, D66G, S84N, R114E
B7: hu1D7v158-8 VHH-hIgG1 Fc-NNT (monomeric) (VHH)
VHH: B1 VHH with A23V, E44Q, V61A, A62E, P63S, D66G, S84N, R114E
B8: hu1D7v158-10 VHH-hIgG1 Fc-NNT (monomeric) (VHH)
VHH: B1 VHH with A23V, E44Q, D66G, S84N, K95Y, R114E
B9: hu1D7v158-2 VHH-hIgG1 Fc-NNT (monomeric) (VHH)
VHH: B1 VHH with A23V, E44Q, A49S, D66G, S84N, R114E
B10: hu1D7v158-4 VHH-hIgG1 Fc-NNT (monomeric) (VHH)
VHH: B1 VHH with A23V, E44Q, V61A, D66G, S84N, R114E
B11: hu1D7v158-7 VHH-hIgG1 Fc-NNT (monomeric) (VHH)
VHH: B1 VHH with A23V, E44Q, D66G, A78T, S84N, R114E
B12: hu1D7v3 VHH-hIgG1 Fc-NNT (monomeric) (VHH)
VHH: EVQLLESGGGEVQPGGSLRLSCVASGGKISQYRMGWYRQAPGKGLEWVAHISNTGDAAEYVDSVKGRFTISRDSTKNAVYLQMSSLRAEDTAVYKCNSVEDILAWGQGTLVTVKP
B13: hu1D7v38 VHH-hIgG1 Fc-NNT (monomeric) (VHH)
VHH: B12 VHH with G26R, G44E, S98V
B14: hu1D7v60 VHH-hIgG1 Fc-NNT (monomeric) (VHH)
VHH: B1 VHH with A23V, A62D, P63S, T98S
B15: hu1D7v57 VHH-hIgG1 Fc-NNT (monomeric) (VHH)
VHH: B12 VHH with G26R, G44E, L45R, W47L, V79L, K114R
B16: hu1D7v75 VHH-hIgG1 Fc-NNT (monomeric) (VHH)
VHH: B1 VHH with A23V, A62G, P63S, N74S, A75T, T98S
B17: hu1D7v102 VHH-hIgG1 Fc-NNT (monomeric) (VHH)
VHH: B12 VHH with G26R, G44E, G66D, V79L, S98T, K114R
B18: hu1D7v58 VHH-hIgG1 Fc-NNT (monomeric) (VHH)
VHH: B1 VHH with A23V, A62D, P63S, N74S, A75T, T98S
B19: hu1D7v83 VHH-hIgG1 Fc-NNT (monomeric) (VHH)
VHH: B1 VHH with A23V, A62D, P63G, N74S, A75T, T98S
B20: hu1D7v93 VHH-hIgG1 Fc-NNT (monomeric) (VHH)
VHH: B1 VHH with A23V, A62D, P63S, N74S, A75T, T98Q
B21: hu1D7v87 VHH-hIgG1 Fc-NNT (monomeric) (VHH)
VHH: B1 VHH with A23V, A62Q, P63S, N74S, A75T, T98S
B22: hu1D7v88 VHH-hIgG1 Fc-NNT (monomeric) (VHH)
VHH: B1 VHH with A23V, A62Q, P63G, N74S, A75T, T98S
B23: hu1D7v10 VHH-hIgG1 Fc-NNT (monomeric) (VHH)
VHH: B12 VHH with G26R, A49S
B24: hu1D7v90 VHH-hIgG1 Fc-NNT (monomeric) (VHH)
VHH: B1 VHH with A23V, A62D, P63S, N74S, A75T, N97S, T98G
B25: hu1D7v71 VHH-hIgG1 Fc-NNT (monomeric) (VHH)
VHH: B1 VHH with A23V, A62D, P63V, N74S, A75T, T98S
B26: 1D7v124 VHH-hIgG1 Fc-NNT (monomeric) (VHH)
VHH: B1 VHH with A23V, A62D, P63G, N74S, A75T, T98S
B27: hu1D7v78 VHH-hIgG1 Fc-NNT (monomeric) (VHH)
VHH: B1 VHH with A23V, A62D, P63S, N74S, A75T, T98A
B28: hu1D7v61 VHH-hIgG1 Fc-NNT (monomeric) (VHH)
VHH: B1 VHH with A23V, A62D, P63S, N74S, A75T
B29: hu1D7v4 VHH-hIgG1 Fc-NNT (monomeric) (VHH)
VHH: B12 VHH with G26R, G27F
B30: 1D7v125 VHH-hIgG1 Fc-NNT (monomeric) (VHH)
VHH: B1 VHH with A23V, A62E, P63G, N74S, A75T, T98S
B31: hu1D7v100 VHH-hIgG1 Fc-NNT (monomeric) (VHH)
VHH: B1 VHH with A23V, A62D, P63S, N74S, A75T, K95Y, T98S
B32: hu1D7v74 VHH-hIgG1 Fc-NNT (monomeric) (VHH)
VHH: B1 VHH with A23V, P63S, N74S, A75T, T98S
B33: hu1D7v73 VHH-hIgG1 Fc-NNT (monomeric) (VHH)
VHH: B1 VHH with A23V, A62D, P63I, N74S, A75T, T98S
B34: hu1D7v92 VHH-hIgG1 Fc-NNT (monomeric) (VHH)
VHH: B1 VHH with A23V, A62D, P63S, N74S, A75T, N97Q, T98N
B35: hu1D7v84 VHH-hIgG1 Fc-NNT (monomeric) (VHH)
VHH: B1 VHH with A23V, A62E, P63G, N74S, A75T, T98S
B36: hu1D7v94 VHH-hIgG1 Fc-NNT (monomeric) (VHH)
VHH: B1 VHH with A23V, A62D, P63S, N74S, A75T, N97S, T98N
B37: hu1D7v39 VHH-hIgG1 Fc-NNT (monomeric) (VHH)
VHH: B12 VHH with G26R, G44E, K114R
B38: hu1D7v96 VHH-hIgG1 Fc-NNT (monomeric) (VHH)
VHH: B1 VHH with A23V, A62Y, P63S, N74S, A75T, T98S
B39: hu1D7v67 VHH-hIgG1 Fc-NNT (monomeric) (VHH)
VHH: B1 VHH with A23V, A62D, P63S, N74S, A75T, N97Q, T98S
B40: hu1D7v79 VHH-hIgG1 Fc-NNT (monomeric) (VHH)
VHH: B1 VHH with A23V, A62D, P63S, N74S, A75T, T98L
B41: hu1D7v59 VHH-hIgG1 Fc-NNT (monomeric) (VHH)
VHH: B1 VHH with A23V, N74S, A75T, T98S
B42: hu1D7v80 VHH-hIgG1 Fc-NNT (monomeric) (VHH)
VHH: B1 VHH with A23V, A62D, P63S, N74S, A75T, T98V
B43: hu1D7v66 VHH-hIgG1 Fc-NNT (monomeric) (VHH)
VHH: B1 VHH with A23V, A62D, P63T, N74S, A75T, T98S
B44: 1D7v113 VHH-hIgG1 Fc-NNT (monomeric) (VHH)
VHH: B1 VHH with A23V, A62D, P63L, N74S, A75T, T98S
B45: hu1D7v72 VHH-hIgG1 Fc-NNT (monomeric) (VHH)
VHH: B1 VHH with A23V, A62D, P63L, N74S, A75T, T98S
B46: 1D7v112 VHH-hIgG1 Fc-NNT (monomeric) (VHH)
VHH: B1 VHH with A23V, A62D, P63V, N74S, A75T, T98S
B47: hu1D7v70 VHH-hIgG1 Fc-NNT (monomeric) (VHH)
VHH: B1 VHH with A23V, A62D, P63S, N74S, A75T, N97E, T98S
B48: hu1D7v91 VHH-hIgG1 Fc-NNT (monomeric) (VHH)
VHH: B1 VHH with A23V, A62D, P63S, N74S, A75T, N97G, T98G
B49: hu1D7v6 VHH-hIgG1 Fc-NNT (monomeric) (VHH)
VHH: B12 VHH with G26R, I29F
B50: hu1D7v8 VHH-hIgG1 Fc-NNT (monomeric) (VHH)
VHH: B12 VHH with G26R, R33A
B51: hu1D7v81 VHH-hIgG1 Fc-NNT (monomeric) (VHH)
VHH: B1 VHH with A23V, A62D, P63S, N74S, A75T, N97A, T98S
B52: hu1D7v98 VHH-hIgG1 Fc-NNT (monomeric) (VHH)
VHH: B1 VHH with A23V, A62L, P63S, N74S, A75T, T98S
B53: hu1D7v5 VHH-hIgG1 Fc-NNT (monomeric) (VHH)
VHH: B12 VHH with G26R, K28T
B54: hu1D7v69 VHH-hIgG1 Fc-NNT (monomeric) (VHH)
VHH: B1 VHH with A23V, A62D, P63S, N74S, A75T, N97T, T98S
B55: 1D7v139 VHH-hIgG1 Fc-NNT (monomeric) (VHH)
VHH: B1 VHH with A23V, A62L, P63S, N74S, A75T, T98S
B56: hu1D7v65 VHH-hIgG1 Fc-NNT (monomeric) (VHH)
VHH: B1 VHH with A23V, A62D, P63A, N74S, A75T, T98S
B57: hu1D7v101 VHH-hIgG1 Fc-NNT (monomeric) (VHH)
VHH: B1 VHH with A23V, A62D, P63S, N74S, A75T, N97A, T98A
B58: hu1D7v89 VHH-hIgG1 Fc-NNT (monomeric) (VHH)
VHH: B1 VHH with A23V, A62D, P63S, N74S, A75T, N97Q, T98G
B59: hu1D7v76 VHH-hIgG1 Fc-NNT (monomeric) (VHH)
VHH: B1 VHH with A23V, A62V, P63S, N74S, A75T, T98S

Legend:
[1] = target: human γδ TCR (Vγ9Vδ2) on human Vδ2+ γδ T cells (human) (UniProt A0JD36); test: flow cytometry on expanded human Vδ2+ γδ T cells, nonlinear fit
[2] = target: human γδ TCR (Vγ9Vδ2) on human Vδ2+ γδ T cells (human) (UniProt A0JD36); test: flow cytometry, monomeric VHH-hIgG1 Fc fusion on expanded human Vδ2+ γδ T cells, anti-human Fc A647, MFI

| Binder | Kd [1] [nM] | EC50 (read off the curve) [2] [nM] |
| --- | --- | --- |
| B1 | 14.7 | – |
| B2 | 20 | – |
| B3 | 2.82 | – |
| B4 | 2.82 | – |
| B5 | 28 | – |
| B6 | 205 | – |
| B7 | 2.93 | – |
| B8 | 4.97 | – |
| B9 | 3.28 | – |
| B10 | 3.13 | – |
| B11 | 3.47 | – |
| B12 | 51.1 | 20 |
| B13 | 20200 | – |
| B14 | 9.67 | – |
| B15 | 10.5 | – |
| B16 | 118 | – |
| B17 | 18 | – |
| B18 | 8.07 | – |
| B19 | 36.3 | – |
| B20 | 1090 | – |

| Binder | Kd [1] [nM] | EC50 (read off the curve) [2] [nM] |
| --- | --- | --- |
| B21 | 44.9 | – |
| B22 | 61.5 | – |
| B23 | 60.9 | – |
| B24 | 95.6 | – |
| B25 | 135 | – |
| B26 | 72.2 | – |
| B27 | 481 | – |
| B28 | 41.3 | – |
| B29 | 8860 | – |
| B30 | 59 | – |
| B31 | 61.9 | – |
| B32 | 60.4 | – |
| B33 | 180 | – |
| B34 | 104 | – |
| B35 | 43.6 | – |
| B36 | 752 | – |
| B37 | 7.99 | – |
| B38 | 191 | – |
| B39 | 1740 | – |
| B40 | 497 | – |

| Binder | Kd [1] [nM] | EC50 (read off the curve) [2] [nM] |
| --- | --- | --- |
| B41 | 23.8 | – |
| B42 | 646 | – |
| B43 | 93.3 | – |
| B44 | 192 | – |
| B45 | 182 | – |
| B46 | 226 | – |
| B47 | 441 | – |
| B48 | 154 | – |
| B49 | 35.1 | – |
| B50 | 7870 | – |
| B51 | 843 | – |
| B52 | 114 | – |
| B53 | 108 | 30 |
| B54 | 1010 | – |
| B55 | 341 | – |
| B56 | 347 | – |
| B57 | 270 | – |
| B58 | 1950 | – |
| B59 | 125 | – |
